First the molecules themselves.
B1: mouse anti-PD-1 monoclonal antibody E1A9C8A7 (antibody, V domains shown)
VH: QVQLQQSGAEVVRPGVSVRISCKGSGYTFSDYVMHWMKQSHGESLEWIGVISTYHIPAVYNQKFKGKATMTVDKSSSTVYLELARLTSEDSAIYYCAREVYGDSYYFDVWGAGTTVTVSS
VL: DVLMTQIPLSLPVSLGDQVSISCRSSQSIVHSNGNTYLEWYLQKPGQSPKLLIYKVSNRFSGVPDRFSGSGSGTDFTLKISRVEAEDLGVYYCFQGSHVPYTFGGGTKLEIK
notes: Hybridoma-derived mouse mAb purified on Protein A; also called Mouse E1A9C8A7
B2: mouse anti-PD-1 monoclonal antibody E2G4E10B7 (antibody, V domains shown)
VH: QVQLQQSGAELVRPGVSVKISCKGSGYTFTDYVMHWVRQSHAKSLEWIGVISTHFGDGVYNQKFKGKATMTVDKSSSTAYMELARLTSEDSAIYYCAREVYGDSWYFDVWGAGTTVTVSS
VL: B1 VL with I7T, V19A, I29L, N33D, V83L
notes: Hybridoma-derived mouse mAb; also called Mouse E2G4E10B7
B3: mouse anti-PD-1 monoclonal antibody E1G5D1H1 (antibody, V domains shown)
VH: EVQLVESGGGLVKPGGSLKLSCAASGFTFSDFYMYWVRQTPEKRLEWVATISNSGTQTYYLDSVKGRFTISRDNAKNNLYLQMSSLKSEDTAMYYCARDYYRYDSWYFDVWGAGTTVTVSS
VL: DIVLTQSPASLAVSQGQRATISCRASESVDFYGTSLMQWFQLKPGQPPKLLIYAASNVESGVPARFSGSGSGTNFSLNIHPVEEDDIAMYFCQQSRKVPWTFGGGTNLEIK
notes: Hybridoma-derived mouse mAb; also called EIG5D1H1; E1G5DIH1

Positions count from the first letter of the chain named.

The source of these data is patent US20230331848A1 (BIOSION, published 2023).

The first experiment concerns the target T1, human PD-1 expressed on GS-J2/PD-1 cells (Genscript) (human, UniProt Q15116 25-288).
T1 construct: whole, on cells; also called cell-surface human PD-1
The experiment can be described thus: cell-based binding FACS on GS-J2/PD-1 cells expressing human PD-1 (MFI); unit from the axis 'Con of mAb, nM.'. On the procedure: The mouse anti-PD-1 antibodies of the disclosure were also tested for their binding activities to human PD-1s expressed on cell surface by flow cytometry (FACS), using GS-J2/PD-1 cell line (Genscript) expressing cell-surface human PD-1s.
In specific, the 293F-mouse PD-1 cells and GS-J2/PD-1 cells were respectively harvested from cell culture flasks, washed twice and re-suspended in PBS containing 2% v/v Fetal Bovine Serum (FACS buffer). Then, 2×10⁵ cells per well were incubated in 96 well-plates with 100 μl of the anti-PD1 antibodies or controls at various concentrations for 40 minutes on ice. […] Following an incubation of 40 minutes at 4° C. in dark, cells were washed three times and re-suspended in FACS buffer. Fluorescence was measured using a Becton Dickinson FACS Canto II-HTS equipment and plotted against antibody concentrations. Data was analyzed using GraphPad Prism software and EC₅₀ values were reported.
Molecule B1 showed an EC50 of 0.37 nM. This lies in the sub-nanomolar range.
Still for that read-out and setting: the value for B2 was 0.483 nM.
B3 returned an EC50 of 0.23 nM.

In a further experiment the target is T2, in house made human PD-1-Fc protein (human, biotin-labeled (sites not given)).
T2 construct: also called biotin-labeled human PD-1-Fc
The experiment can be described thus: capture ELISA: antibody captured on anti-mouse IgG F(ab')2 coated plate, biotin-labeled human PD-1-Fc detected with streptavidin-HRP; unit from the axis 'Con of mAb, nM.'. On the procedure: Briefly, 96-well micro plates were coated with 100 μl 2 μg/ml AffiniPure Goat Anti-Mouse IgG F(ab′)₂ fragment specific (Cat#:115-005-072, Jackson lmmunoResearch) or Goat-anti-human IgG (Cat#:109-005-097, Jackson ImmunoResearch, for the positive control and negative control) in PBS overnight at 4° C. Plates were washed once with wash buffer (PBST, PBS+0.05% Tween-20) and then blocked with 200 μl/well blocking buffer (5% w/v non-fatty milk in PBST) for 2 hours at 37° C. […] After a final wash, plates were incubated with 100 μl/well TMB (Cat#:TMB-S-002, Innoreagents) at room temperature.
The reaction was stopped 3-10 minutes later with 50 μl/well 1M H₂SO₄, and the absorbance was read on a microplate reader using dual wavelength mode with 450 nm for TMB and 630 nm as the reference wavelength. The OD (450-630) values were plotted against antibody concentrations. Data was analyzed using GraphPad Prism software and EC₅₀ values were reported.
B1: the EC50 was 0.0554 nM. In other words, the picomolar range.
Take B2: the EC50 came to 0.0647 nM.
In turn, B3 gave an EC50 of 0.0379 nM. Compared with the last molecule, the EC50 is about 1.7-fold lower.

The next experiment has as its target T2, in house made human PD-1-Fc protein. Put plainly: competitive ELISA: antibody pre-mixed with biotin-labeled human PD-1-Fc, added to coated Pembrolizumab (competitor); unit from the axis 'Con of mAb, nM.'. The method, then: ELISA plates were washed once with wash buffer (PBST, PBS+0.05% Tween-20) and then blocked with 200 μl/well blocking buffer (5% w/v non-fatty milk in PBST) for 2 hours at 37° C. […] After incubation at 37° C. for 40 minutes, plates were washed using wash buffer, added and incubated with 100 μl/well Peroxidase Streptavidin for 40 minutes at 37° C. Plates were washed again using wash buffer. Finally, TMB was added and the reaction was stopped using 1M H₂SO₄. The absorbance was read on a microplate reader using dual wavelength mode with 450 nm for TMB and 630 nm as the reference wavelength, and the OD (450-630) values were plotted against antibody concentrations. Data was analyzed using Graphpad Prism software and IC₅₀ values were reported.
B1 gave an IC50 of 0.0982 nM.
Still for that read-out and setting: the figure for B2 is 0.162 nM.
For the molecule B3, the IC50 was determined as 0.0629 nM.

For another experiment, the target named is T3, cynomolgus PD-1-his protein (Cat#:PD1-05223, Acro biosystems Inc.) (cynomolgus, UniProt B0LAJ3 25-170).
T3 construct: Bought protein used in Biacore and indirect ELISA; also called monkey PD-1; Cyno PD-1
The experiment can be described thus: SPR (Biacore T200), antibody captured, PD-1-his in flow, 1:1 fit. An excerpt:
(§1) The purified anti-PD-1 mouse monoclonal antibodies (mAbs) generated in Example 1 were characterized for binding affinities and binding kinetics by Biacore T200 system (GE healthcare, Pittsburgh, Pa., USA).
(§2) Briefly, Goat-Anti-Mouse IgG (Cat#: BR100838, GE healthcare, Mouse Antibody Capture Kit) was covalently linked to a CMS chip (carboxy methyl dextran coated chip, Cat#: BR100530, GE healthcare) via primary amines using a standard amine coupling kit (GE healthcare, Pittsburgh, Pa., USA) provided by Biacore. Un-reacted moieties on the biosensor surface were blocked with ethanolamine. A Protein G chip (Cat#:29-1793-15, GE healthcare) was used for the positive controls affinity determination. The anti-PD-1 antibodies of the disclosure and the two positive controls at the concentration of 2 μg/ml were respectively flowed onto the chip at a flow rate of 10 μl/min. Then, serially diluted recombinant human PD-1-his protein (Cat#:10377-H08H, Sino biological Inc.), cynomolgus PD-1-his protein (Cat#:PD1-05223, Acro biosystems Inc.) and recombinant mouse PD-1-his protein (Cat#:50124-M08H, Sino Biological Inc), 2-fold dilution in HBS-EP⁺ buffer (provided by Biacore) starting at 200 nM, were respecitvely flowed onto the chip at a flow rate of 30 μl/min. The antigen-antibody association kinetics was followed for 2 minutes and the dissociation kinetics was followed for 10 minutes. The association and dissociation curves were fit to a 1:1 Langmuir binding model using Biacore evaluation software.
For the molecule B1, the Kd is 1.13 nM, the koff was determined as 0.000119 s⁻¹ and the kon worked out at 106000 M⁻¹ s⁻¹.
Consider B2, for which the Kd came to 1.16 nM, the koff is 0.000161 s⁻¹ and the kon came to 138000 M⁻¹ s⁻¹.
In turn, B3 came in with a Kd of 0.125 nM, a koff of 4.32e-05 s⁻¹ and a kon of 345000 M⁻¹ s⁻¹.

The next experiment deals with T4, recombinant human PD-1-his protein (Cat#:10377-H08H, Sino biological Inc.) (human, UniProt Q15116 25-167).
T4 construct: Bought protein used as analyte in the Biacore tests; not shown: his tag
The experiment is described as above.
Excerpt: as §1, §2
As to B1, the Kd is 1.1 nM, the koff turned out to be 0.00022 s⁻¹ and the kon is 199000 M⁻¹ s⁻¹.
Take B2: the Kd stood at 0.906 nM, the koff was determined as 0.00022 s⁻¹ and the kon amounted to 243000 M⁻¹ s⁻¹.
For B3 the same measures were 0.236 nM, 8.56e-05 s⁻¹ and 363000 M⁻¹ s⁻¹.

Another experiment concerns the target T2, in house made human PD-1-Fc protein. Put plainly: cell-based blocking FACS: antibody pre-mixed with biotin-labeled human PD-1-Fc, added to GS-C2/PD-L1 cells expressing human PD-L1 (blocked ligand); unit from the axis 'Con of mAb, nM.'. On the procedure: GS-C2/PDL1 cells were harvested from cell culture flasks at the log phase, washed twice and re-suspended in PBS containing 2% v/v Fetal Bovine Serum (FACS buffer). GS-C2/PD-L1 cells, 0.6×10⁵ cells per welt, were incubated in 96 well-plates with 100 the antibody/PD1-Fc mixture for 40 minutes at 4° C. Cells were washed twice with FACS buffer, added with 100 R-Phycoerythrin Streptavidin (1:500 dilution in FACS buffer, Cat#:016-110-084, Jackson Immunoresearch), and incubated for 40 minutes at 4° C. in dark. Cells were washed twice and re-suspended in FACS buffer. Fluorescence was measured using a Becton Dickinson FACS Canto II-HTS equipment. Data was analyzed using Graphpad Prism software and IC₅₀ values were reported.
In the case of B1, the IC50 came to 0.782 nM.
B2 registered a half-inhibitory concentration (IC50) of 0.484 nM.
B3: the IC50 came out at 0.496 nM.
